B1: PPP2R2B (parent)
chain: RNTKRDVTLEASRENSKPRAILKP

Variants of: B1
Test: protein stability index of a GFP-peptide fusion (GPS, HEK-293T) (PSI 1-6); higher = more stable
Conditions: c terminus: a fixed tail appended
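Further: lentivirally expressed fusions sorted by FACS into six bins by GFP to DsRed ratio, PSI derived from sequencing read proportions per bin multiplied by bin number.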

Protein stability index, by site and new letter:
D6: Y 3.79
V7: A 4.19; C 3.77; D 4.86; E 4.46; F 4.43; G 4.83; H 4.67; I 4.25; K 4.6; L 4.42; M 4.81; N 4.76; P 4.98; Q 4.8; R 4.59; S 4.58; T 4.81; W 4.61; Y 4.63
T8: A 4.72; C 4.2; D 5.02; E 4.9; F 3.88; G 4.54; H 4.35; I 4.35; K 4.86; L 4.62; M 4.34; N 4.98; P 4.76; Q 4.62; R 4.68; S 4.3; V 4.25; W 3.66; Y 4.31
L9: A 4.9; C 4.78; D 5.09; E 4.78; F 4.11; G 4.88; H 4.46; I 4.38; K 4.26; M 4.84; N 4.22; P 4.4; Q 5.07; R 4.84; S 4.89; T 4.96; V 4.59; W 4.34; Y 4.52
E10: A 4.52; C 3.86; D 4.64; F 3.49; G 4.32; H 4.12; I 4.14; K 4.52; L 3.6; M 3.83; N 4.25; P 4.55; Q 4.33; R 4.01; S 4.38; T 3.7; V 4.35; W 2.77; Y 4
A11: C 4.52; D 4.78; E 5.24; F 3.59; G 4.49; H 4.8; I 3.92; K 4.23; L 3.35; M 4.36; N 4.3; P 4.23; Q 4.28; R 4.58; S 4.67; T 4.44; V 4.49; W 3.95; Y 3.92
S12: A 4.12; C 3.95; D 4.8; E 4.95; F 3.58; G 5.13; H 4.73; I 4.07; K 4.34; L 3.96; M 4.12; N 4.43; P 4.45; Q 4.42; R 4.41; T 4.79; V 4.33; W 3.79; Y 4.18
R13: A 4.92; C 4.16; D 5.09; E 5.14; F 3.98; G 5.06; H 5.06; I 4.53; K 4.69; L 4.44; M 4.64; N 4.83; P 4.46; Q 4.75; S 4.91; T 4.07; V 4.67; W 3.56; Y 4.37
E14: A 4.66; C 3.9; D 4.4; F 3.88; G 4.4; H 4.49; I 3.72; K 4.12; L 4.04; M 3.88; N 4.72; P 4.3; Q 4.97; R 4.14; S 4.45; T 4.58; V 3.79; W 3.87; Y 3.67
N15: A 4.29; C 4.13; D 4.77; E 4.92; F 4.66; G 4.49; H 3.94; I 4.59; K 4.82; L 4.53; M 4.09; P 4.32; Q 4.73; R 4.22; S 4.85; T 4.49; V 4.45; W 3.77; Y 4.09
S16: A 4.51; C 4.23; D 4.58; E 4.75; F 4.38; G 4.42; H 4.57; I 4.19; K 4.23; L 4.16; M 4.53; N 4.48; P 4.96; Q 4.61; R 4.24; T 4.2; V 4.24; W 3.37; Y 4.17
K17: A 4.66; C 4.18; D 4.57; E 5.13; F 4.37; G 4.89; H 4.47; I 4.33; L 4.56; M 4.69; N 4.5; P 5.27; Q 4.81; R 4.38; S 4.04; T 4.71; V 4.66; W 4.3; Y 4.14
P18: A 4.52; C 4.25; D 5.07; E 5; F 3.79; G 4.86; H 4.11; I 4.27; K 4.73; L 4.27; M 4.58; N 4.55; Q 4.76; R 4.79; S 4.72; T 4.54; V 4.32; W 3.87; Y 3.62
R19: A 4.2; C 4.69; D 4.86; E 5.04; F 4.12; G 4.86; H 4.46; I 4.39; K 4.7; L 4.7; M 4.44; N 4.7; P 4.79; Q 4.75; S 4.41; T 4.52; V 4.72; W 3.98; Y 4.21
A20: C 4.17; D 4.64; E 5; F 4.03; G 4.39; H 4.85; I 4.32; K 5.04; L 4.19; M 4.65; N 4.64; P 4.3; Q 4.44; R 4.66; S 4.48; T 4.49; V 4.38; W 3.3; Y 4.1
I21: A 4.8; C 4.85; D 5.3; E 5.34; F 4.3; G 4.99; H 4.52; K 4.83; L 4.68; M 4.67; N 4.68; P 5.15; Q 4.8; R 5.35; S 4.78; T 4.5; V 4.6; W 4.7; Y 4.5
L22: A 4.99; C 4.47; D 5.09; E 5.31; F 4.5; G 4.69; H 4.8; I 4.2; K 5.11; M 4.33; N 4.79; P 4.28; Q 4.92; R 4.75; S 4.9; T 4.49; V 4.72; W 3.98; Y 4.37
K23: A 4.5; C 4.25; D 4.79; E 4.5; F 3.48; G 4.48; H 4.57; I 4.04; L 3.91; M 3.94; N 4.18; P 4.5; Q 4.89; R 4.04; S 4.56; T 4.67; V 4.31; W 4.33; Y 4.38
P24: A 4.74; C 4.44; D 3.69; E 4.74; F 3.56; G 4.65; H 4.41; I 3.32; K 4.26; L 4

— the supplement of paper PMC10567573
